Laboratory results reported in article PMC3061051 (Nucleic Acids Research, 2010).
Residue numbers refer to the chain shown, from its start.

Experiments:
Assay in all cases: EMSA
[1] = target: T1, Δ(F561-T562-T566)-RECQ1T1 (human, UniProt P46063 49-616, del561-562;del566-566)
T1 sequence: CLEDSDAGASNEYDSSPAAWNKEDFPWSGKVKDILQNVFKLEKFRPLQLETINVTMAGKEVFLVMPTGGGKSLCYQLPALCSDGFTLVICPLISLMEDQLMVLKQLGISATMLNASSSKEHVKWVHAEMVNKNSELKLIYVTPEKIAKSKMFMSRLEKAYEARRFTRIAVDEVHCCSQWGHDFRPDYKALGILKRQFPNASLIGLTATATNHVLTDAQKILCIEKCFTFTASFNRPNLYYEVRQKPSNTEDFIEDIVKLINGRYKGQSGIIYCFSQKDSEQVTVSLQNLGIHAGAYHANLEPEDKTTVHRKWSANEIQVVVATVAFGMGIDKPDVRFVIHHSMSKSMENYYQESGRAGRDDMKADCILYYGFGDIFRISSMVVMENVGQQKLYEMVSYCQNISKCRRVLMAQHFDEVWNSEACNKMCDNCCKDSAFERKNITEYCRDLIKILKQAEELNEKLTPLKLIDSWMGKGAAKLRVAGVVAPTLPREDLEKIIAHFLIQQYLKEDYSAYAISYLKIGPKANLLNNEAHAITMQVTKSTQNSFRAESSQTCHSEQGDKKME

[2] = target: W227A-F231A-RECQ1T1 (human, UniProt P46063 49-616, W227A;F231A)
[3] = target: RECQ1T1 (RECQ1 49-616) (human, UniProt P46063 49-616)
[4] = target: T2, Y559A-S560A-F561A-RECQ1T1 (human, UniProt P46063 49-616, Y559A;S560A;F561A)
T2 sequence: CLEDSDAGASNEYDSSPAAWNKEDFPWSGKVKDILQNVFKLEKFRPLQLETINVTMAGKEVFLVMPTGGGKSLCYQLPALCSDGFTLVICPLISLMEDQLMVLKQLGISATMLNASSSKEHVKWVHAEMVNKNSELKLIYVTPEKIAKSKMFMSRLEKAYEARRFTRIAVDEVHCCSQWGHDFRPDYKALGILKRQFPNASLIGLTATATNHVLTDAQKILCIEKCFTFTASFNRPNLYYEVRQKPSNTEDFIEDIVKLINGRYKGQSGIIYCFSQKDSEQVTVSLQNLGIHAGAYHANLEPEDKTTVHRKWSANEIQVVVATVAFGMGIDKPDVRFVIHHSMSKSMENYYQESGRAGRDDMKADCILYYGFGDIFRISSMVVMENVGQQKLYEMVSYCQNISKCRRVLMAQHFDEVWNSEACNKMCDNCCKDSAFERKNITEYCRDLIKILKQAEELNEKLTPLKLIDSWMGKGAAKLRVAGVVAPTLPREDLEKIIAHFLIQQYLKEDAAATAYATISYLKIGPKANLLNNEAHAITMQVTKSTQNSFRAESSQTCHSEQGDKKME

[5] = target: T3, Y564A-RECQ1T1 (human, UniProt P46063 49-616, Y564A)
T3 sequence: T2 sequence with A511Y, A512S, A513F, Y516A

Measured: binding result

B1: X12 Holliday junction (structured_DNA)
DNA 1: GACGCTGCCGAATTCTGGCTTGCTAGGACATCTTTGCCCACGTTGACCCG
DNA 2: CGGGTCAACGTGGGCAAAGATGTCCTAGCAATGTAATCGTCTATGACGTC
DNA 3: GACGTCATAGACGATTACATTGCTAGGACATGCTGTCTAGAGACTATCGC
DNA 4: GCGATAGTCTCTAGACAGCATGTCCTAGCAAGCCAGAATTCGGCAGCGTC
no binding: all assays above
